Laboratory results as given in PMC9876794 (2022).

Target: SARS-CoV-2 spike RBD (WT) (Severe acute respiratory syndrome …, UniProt P0DTC2)
Assay: ELISA
Parameters: unit not given here

B1: D131 (antibody, V domains shown)
VH: QVQLVQSGAEVKKPGASVKVSCKASGYTFTSYGISWVRQAPGQGLEWMGWISAYNGNTNYVQKLQGRVTMTTDTSTSTAYMELRSLRSDDTAVYYCARVQYYYGSGSYRSTYYFDYWGQGTLVTVSS
VL: QPVLTQSSSASASLGSSVKLTCTLSSGHSSYIIAWHQQQPGKAPRYLMNLEGSGSYNKGSGVPDRFSGSSSGADRYLTISNLQSEDEADYYCETWDSNIWVFGGGTKLTVL
- binding score: > 10000

B2: C2691 (antibody, V domains shown)
VH: EVQLVESGGGLVQPGRSLRLSCAASGFTFDDYAMHWVRQAPGKGLEWVSGISWNSGSIGYADSVKGRFTISRDNAKNSLYLQMNSLRAEDTALYYCAKDNRLDTMVRGGRVDAFDIWGQGTMVTVSS
VL: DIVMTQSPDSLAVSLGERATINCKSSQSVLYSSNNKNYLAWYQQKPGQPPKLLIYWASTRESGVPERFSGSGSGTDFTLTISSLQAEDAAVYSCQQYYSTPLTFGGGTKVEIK
- binding score: > 10000

B3: D035 (antibody, V domains shown)
VH: EVQLVESGGGLVQPGRSLRLSCAASGFTFDDYAMHWVRQAPGKGLEWVSGISWNSGSIGYADSVKGRFTISRDNAKNSLYLQMNSLRAEDTALYYCAKDTVAGLPYWYFDLWGRGTLVTVSS
VL: not shown
- binding score: > 10000

B4: D105 (antibody, V domains shown)
VH: QVQLQQWGAGLLKPSETLSLTCAVFGGSFSGYYWSWIRQPPGKGLEWIGEINHSGSTNYNPSLKSRVTLSVDTSKNQFSLELSSVTAADTAVYYCARVGPILFDYWGQGTLVTVSS
VL: QFVLTQPPSVSAAPGQKVTISCSGSSSNIGNNYVSWFQQLPGTAPKLLIYDNNMRPSRIPDRFSGSKSGTSATLGITGLQTGDEADYYCGTWDSSLSSVVFGGGTKLTVL
- binding score: 1340

B5: D168 (antibody, V domains shown)
VH: EVQLVESGGGLVKPGGSLRLSCAASGFTFSSYSMNWVRQAPGKGLEWVSSISSSSSYIYYADSVKGRFTISRDNAKNSLYLQMNSLRAEDTAVYYCARDLGTAIVYVREKYYYGMDVWGQGTTVTVSS
VL: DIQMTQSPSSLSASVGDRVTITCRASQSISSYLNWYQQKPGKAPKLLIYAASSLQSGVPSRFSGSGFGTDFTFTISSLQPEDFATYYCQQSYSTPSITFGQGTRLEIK
- binding score: 4730

B6: D071 (antibody, V domains shown)
VH: EVQLVESGGGLVQPGRSLRLSCTASGFTFGDYAMSWFRQAPGKGLEWLGFIKSKSYGGTTEYAASVKGRFTISREDSKSIAYLQMNSLKTEDTAVYYCTRTIFGVVHFDYWGQGTLVTVSS
VL: SYVLTQPPSVSVAPGKTARITCERNNIGSKSVHWYQQKPGRAPVLVIYYDSDRPSGIPERFSGSNSENTATLTISRVEAGDEADYYCQVWNSSSDHPVFGGGTKLTVL
- binding score: > 10000

B7: D142 (antibody, V domains shown)
VH: QVQLVESGGGVVQPGRSLRLSCAASGFTFSSYGMHWVRQAPGKGLEWVAVISYDGSNKYYADSVKGRFTISRDNSKNTLYLQMNSLRAEDTAVYYCAKKPTMYYYDSSGYYYFDYWGQGTLVTVSS
VL: QFVLTQPPSVSGAPGQRVTISCTGSSSNIGAGYDVHWYQQLPGTAPKLLIYGNSNRPSGVPDRFSGSKSGTSASLAITGLQAEDEADYYCQSYDSSLSGYVFGTGTKVTVL
- binding score: > 10000

B8: D132 (antibody, V domains shown)
VH: EVQLVESGGGLVQPGRSLRLSCAASGFTFDDYAMHWVRQAPGKGLEWVSGISWNSGSIGYADSVKGRFTISRDNAKNSLYLQMNSLRNDDTALYYCAKGRIGGNYYLLDYWGQGTLVTVSS
VL: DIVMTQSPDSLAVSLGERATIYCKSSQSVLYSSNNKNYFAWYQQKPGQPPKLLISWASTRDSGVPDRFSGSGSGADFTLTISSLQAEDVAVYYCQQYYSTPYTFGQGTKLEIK
- binding score: 9490

B9: D033 (antibody, V domains shown)
VH: QVQLVESGGGVVQPGRSLRLSCAASGFTFSYYAMHWVRQAPGKGLEWVAVISYDGINKYYADSVKGRFTFSRDNSKNTLYLQMNSLSAEDTAVYYCARPYCGGDCYRAPDYWGQGTLVTVSS
VL: QSVLTQEPSLTVSPGGTVTLTCGSSTGAVTSSHYPYWFQQKPGQVPRTLIYDTSNKHSWTPARFSGSLLGGKAALTLSGAQPEDEADYYCLLSYSGVRRVFGGGTKLTVL
- binding score: > 10000

B10: C2729 (antibody, V domains shown)
VH: QLQLQESGPGLVKPSETLSLTCTVSGGSISSSSYYWGWIRQPPGKGLEWIGSIYYSGSTYYNPSLKSRVTISVDTSKNQFSLKLSSVTAADTAVYYCARRWIQLWSGFDPWGQGTLVTVSS
VL: DIQLTQSPSFLSASVGDRVTITCRASQGISSYLAWYQQKPGKAPKLLIYAASTLQSGVPSRFSGSGSGTEFTLTISSLQPEDFATYYCQQLNSYSITFGQGTRLEIK
- binding score: > 10000

B11: D028 (antibody, V domains shown)
VH: QVQLVQSGAEVKKPGASVKVSCKASGYTFISYYVHWVRQAPGQGLEWMGIINPSGGSTSYTQKFQGRVTMTRDTSTSTVYMELSSLRFEDTAVYYCATEGGMITENSSLHWGQGTLVTVSS
VL: DIQMTQSPSTLSASVGDRVTITCRASQSISSWLAWYQQKPGKAPKLLIYKASSLESGVPSRFSGSGSGTEFTLAISSLQPDEFATYYCQQYNSYPWTFGQGTKVEIK
- binding score: > 10000

B12: D081 (antibody, V domains shown)
VH: QVQLQESGPGLVKPSQTLSLTCTVSGGSISSGDYYWSWIRQPPGKGLEWIGYIYYSGSTYYNPSLKSRVTISVDTSKNQFSLKLSSVTAADTAVYYCARVAGIVNWFDPWGQGTLVTVSS
VL: NFMLTQPHSVSESPGKTVTISCTGSSGSIASNYVQWYQQRPGSAPTTVIYEDNQRPSGVPDRFSGSIDSSSNSASLTISGLKTEDEADYYCQSYDSSNQVFGGGTKLTVL
- binding score: > 10000

B13: C2694 (antibody, V domains shown)
VH: EVQLVESGGGLVQPGRSLRLSCAASGFTFDDYAMHWVRQAPGKGLEWVSGISWNSGSIGYADSVKGRFTISRDNAKNSLYLQMNSLRAEDTALYYCAKDSLLWYDSSGYYHYYYYGMDVWGQGTTVTVSS
VL: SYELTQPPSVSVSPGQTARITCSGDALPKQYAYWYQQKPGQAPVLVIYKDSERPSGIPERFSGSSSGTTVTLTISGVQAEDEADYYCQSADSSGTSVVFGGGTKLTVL
- binding score: > 10000

B14: D143 (antibody, V domains shown)
VH: EVQLVESGGGLVQPGGSLRLSCAASGFTFSSYSMNWVRQAPGKGLEWVSYISSSSSTIYYADSVKGRFTISRDNAKNSLYLQMNSLRDEDTAVYYCASHYGAPTSYYYYGMDVWGQGTTVTVSS
VL: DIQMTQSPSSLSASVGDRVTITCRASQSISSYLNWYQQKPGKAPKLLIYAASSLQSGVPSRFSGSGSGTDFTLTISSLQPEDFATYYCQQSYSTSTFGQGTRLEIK
- binding score: 39.5

B15: D160 (antibody, V domains shown)
VH: QVQLVQSGAEVKKPGASVKVSCKASGYTFTTYGFSWVRQAPGQGLEWMGWISGYNGNTHYAQKVQGRVTMTTDTSTTTAYMELRSLTYDDTAVYYCARAGDDEANAFDIWGQGTMVTVSS
VL: DIQMTQSPSTLSASVGDRVTITCRASQTISIWLAWYQQKPGKAPKLLIYKASKIQSGVPSRFSGSESGTEFTLTISSLQPDDFATYYCQQYNSYPLTFGGGTKVESK
- binding score: 491

B16: D072 (antibody, V domains shown)
VH: QVQLQQWGAGLLKPSETLSLTCAVYGGSFSGHYWSWIRQSPGKGLEWIGEINHSGDTNYNASLKSRVTISVDTSKNQFSLQMTSVTAADTAVYYCARRRGIVLMRAVDVWGKGTTVTVSS
VL: EIVMTQSPATLSLSPGERATLSCRASQSVSNNYFSWYQQKPGQAPRLLIYGASARATGIPARFSGSGSGTEFTLTISSLQPEDIALYFCQQDFHPYTFGQGTKLEIK
- binding score: > 10000

B17: C2732 (antibody, V domains shown)
VH: EVQLVESGGGLVQPGRSLRLSCAASGFTFDDYAMHWVRQAPGKGLEWVSGISWNSGSIGYADSVKGRFTISRDNAKNSLYLQMNSLRAEDTALYYCAKDIGRIAEGYGMDVWGQGTTVTVSS
VL: QSALTQPASVSESPGQSITISCTGTSSDIGGYNYVSWYQQHPGKAPKLMIYEVSNRPSGVSNRFSGSKSGNTASLTISGLQAEDEADYYCSSYTSSSTVVFGGGTKLTVL
- binding score: 376

B18: D055 (antibody, V domains shown)
VH: EVQLVESGGGLVQPGGSLRLSCAASGFTFSSYDMHWVRQATGKGLEWVSAIGTAGDTYYPGSVKGRFTISRENAKNSLYLQMNSLRAGDTAVYYCARGAMVRGVIMVFDYWGQGTLVTVSS
VL: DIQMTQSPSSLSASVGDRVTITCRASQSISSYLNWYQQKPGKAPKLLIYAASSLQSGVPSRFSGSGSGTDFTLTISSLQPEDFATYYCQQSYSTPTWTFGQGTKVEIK
- binding score: 9930
